Positions of bridges follow the written chain, without caps; N, C: chain ends. No end group written: not given here.
Key:
Neuro-2a cells [1] = assay: Cytoprotection against ATP-induced cell death (MTT assay); assay type: cell-based, mouse; conditions: 4 mM ATP, 48 h
Protocol: (§1) Neuro-2a neuroblastoma cells (ATCC® CCL-131™) were obtained from American Type Culture Collection (Manassas, VA, USA). The cells were cultivated in DMEM medium (BioloT, St. Petersburg, Russia) supplemented with 10% of fetal bovine serum (BioloT, St. Petersburg, Russia) and 1% penicillin/streptomycin (BioloT, St. Petersburg, Russia) at 37 °C and 5% CO2. Initially, cells were incubated in cultural flasks until sub-confluent (~80%). For testing, Neuro-2a cells were seeded in 96-well plates and experiments were started after 24 h.
The cytoprotective effect of peptides was assessed in Neuro-2a cells using the MTT assay. In brief, an aliquot (180μL) of cell suspension with a nominal cell density of 3 × 10^4 cells/well was dispensed into 96-well plates. The cells were incubated for 24 h in a humidified atmosphere containing 5% CO2 to allow cell attachment. At the end of the preincubation period, ATP (Sigma-Aldrich, St. Louis, MO, USA) was added to the cells at a concentration of 4 mM. Studied peptides were added to the cells at concentrations of 0.1, 1.0 or 10.0 μM for 1h prior to the addition of ATP. After incubation for 48 h at 37 °C cell viability was detected using the MTT as described previously. The standard P2X7 inhibitor, A438079 (Sigma-Aldrich, St. Louis, MO, USA), at a concentration of 10 μM was used as a positive control.
(§2) All data were obtained in three independent replicates and calculated values were expressed as mean ± standard error of the mean (SEM). The Student’s t-test was performed using SigmaPlot 14.0 (Systat Software Inc., San Jose, CA, USA) to determine statistical significance.

P2X7 in Neuro-2a cells = assay: ATP-induced Ca2+ influx (Fluo-8 AM); assay type: cell-based, mouse; conditions: 1 mM ATP
Protocol: as §1
(§3) Neuro-2a cells were seeded in 96-well plates at a density of 4 × 10^4 cells/well and incubated in DMEM for 24 h at 37 °C, 5% CO2. Then the cells were washed twice with culture medium and loaded with 5 μM Fluo-8 AM (Abcam, Cambridge, UK) dye and 1 μM Pluronic® F-127 (Sigma-Aldrich, St. Louis, MO, USA), and incubated for 40 min at 37 °C in HBSS: 140 mM NaCl, 5 mM KCl, 0.8 mM MgCl2, 2 mM CaCl2, 10 mM glucose, 10 mM HEPES, pH 7.4. Then the cells were washed two times with the same solution but without the fluorescent dye and treated with the studied peptides for 30 min at RT in the dark. In some experiments Ca^2+-free medium was used: 140 mM NaCl, 5 mM KCl, 0.8 mM MgCl2, 10 mM glucose, 10 mM HEPES, 5 mM EGTA, pH 7.4. ATP (1 mM final concentration) was added using a microinjector (20 μL/well) 10 s later the baseline recording and the readings were taken up to 50 s in 1 s intervals. The standard P2X7 inhibitor, A438079 (Sigma-Aldrich, St. Louis, MO, USA), was used as inhibitory control. Ionomycin (Sigma-Aldrich, St. Louis, MO, USA) and BHQ were used to generate a generic calcium signal in cells. 2,5,-di(t-butyl) hydroquinone (BHQ) was synthesized and kindly provided by Dr. Polonik S.N. (PIBOC FEBRAS). Fluo-8 was excited at 485 nm, and the emission at 520 nm was measured with a PHERAstar®FS plate reader (BMG LABTECH, Ortenberg, Germany). The data were processed by MARS Data Analysis v. 3.01R2 (BMG Labtech, Ortenberg, Germany). Mean values and standard error of peak height calcium were calculated.
as §2

Neuro-2a cells [2] = assay: [Ca2+]i in Ca2+-free medium (Fluo-8 AM); assay type: cell-based, mouse; conditions: for [Ca2+]i in Ca-free medium: ionomycin 10 μM in the presence of ATP 1 mM, or BHQ 50 μM, n = 6
Protocol: as §3
The following supporting information can be downloaded at: https://www.mdpi.com/article/10.3390/md21030192/s1, Figure S1: The RP-HPLC elution profiles of Kunitz peptides: HCRG1 (a), HCRG2 (b), and HCRG7 (c), on a Jupiter C4 column (Phenomenex, USA), equilibrated by 0.1% TFA, in a gradient of acetonitrile concentration (0–70%) for 70 min at 1.5 mL/min. MALDI mass spectra of the average molecular weight of peptides are shown in the insert. Black solid lines accentuate fractions from which the peptides were isolated. Figure S2: 1H NMR spectra of HCRG1 (a) and HCRG7 (b). Figure S3. […]

[3] = tested on: cultured neurons of the dorsal horn of the spinal cord; conditions: cited from earlier work
Text: Activated P2X7 has also been reported to alter reactive oxygen species (ROS) in microglia/macrophages as was shown, for example, in primary rat microglial cells. In cultured neurons of the dorsal horn of the spinal ...

[4] = biological target: T1, hP2X7 (47–334 a.a., extracellular domain, 36.8 kDa) (Homo sapiens, UniProt Q99572); assay: Surface plasmon resonance (Biacore 3000); assay type: binding; conditions: model: binding 1:1 (Langmuir), 25 °C, HBS-N pH 7.4, n = 3
T1 construct: hP2X7 (47–334 a.a., extracellular domain, 36.8 kDa); purchased Abbexa LTD, Cambridge, UK abx167020
T1 sequence (Q99572 47-334): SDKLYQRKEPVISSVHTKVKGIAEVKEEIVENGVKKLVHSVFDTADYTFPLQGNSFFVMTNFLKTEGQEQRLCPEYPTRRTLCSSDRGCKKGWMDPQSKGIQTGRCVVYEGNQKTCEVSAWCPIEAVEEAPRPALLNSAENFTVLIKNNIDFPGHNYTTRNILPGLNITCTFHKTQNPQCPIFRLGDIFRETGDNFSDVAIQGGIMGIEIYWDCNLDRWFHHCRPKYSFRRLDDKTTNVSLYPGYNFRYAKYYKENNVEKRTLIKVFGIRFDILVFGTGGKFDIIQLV
Protocol: SPR analysis was performed at 25 °C using a Biacore® 3000 optical biosensor (GE Healthcare, Chicago, IL, USA) and CM5 sensor chips. HBS-N (10 mM HEPES, 150 mM NaCl, pH 7.4) (Cytiva, Chicago, IL, USA) was used as a working buffer for the immobilization of hP2X7 (47–334 a.a., extracellular domain, 36.8 kDa) (abx167020 Abbexa LTD, Cambridge, UK). The carboxyl groups of the dextran biosensor chip were activated for 5 min by introducing a 1:1 mixture of 0.2 M 1-ethyl-3-(3-dimethylaminopropyl)carbodiimide hydrochloride (EDC) and 0.05 M N-hydroxysuccinimide (NHS) at a rate of 5 µL/min followed by a 1 min wash with HBS-N buffer at the same flow rate. Next, hP2X7 (15 μg/mL) in 10 mM sodium acetate (pH 5.0) was injected into the working channel of the biosensor for 10 min at a flow rate of 5 μL/min. The final level of immobilization was 12300 RU (12.3 ng of protein). The control channel without immobilized P2X7R was used to correct the effects of the nonspecific binding of analytes to the chip surface.
Lyophilized peptides were prepared as 100 μM stock solutions in HBS-N buffer. Experimental peptide samples were prepared in the range of 5–100 μM. The samples were injected through the channels of the biosensor (working and reference) at a flow rate of 10 μL/min for 6 min. The dissociation of the formed peptide/P2X7 complexes was recorded for at least 6 min from the moment of injection at the same flow rate after the injection of the sample. After each cycle of the biosensor, the bound analyte was removed by double injection of the regenerating solution (2 M NaCl, 1% CHAPS) at a flow rate of 30 μL/min for 30 s.
SPR sensorgrams were processed in Biacore 3000 Evaluation Software v.1.0 (GE Healthcare, Chicago, IL, USA) and BIAevaluation Software v. 4.1.1 (GE Healthcare, Chicago, IL, USA) using “1:1 binding (Langmuir)” and “two-state binding (conformational change)” data processing models.
The 1:1 (Langmuir) binding model is a 1:1 interaction model between a compound (C) and an immobilized protein (P) and is equivalent to the Langmuir isotherm for surface adsorption: C + P ↔ CP.
The two-state binding (conformational change) model describes the 1:1 binding of a compound (C) to an immobilized protein (P) followed by a conformational change in the complex (CP ↔ CP*). It is assumed that the conformationally changed complex can dissociate only by the reverse conformational change: C + P ↔ CP ↔ CP*. The final kinetic parameters were obtained from the models that best agree with the experimental curves for the minimum of the obtained value of chi2. The equations describing the models used are as follows: • (1) 1:1 (Langmuir) binding: Kd = koff/kon, where Kd is the equilibrium dissociation constant, koff is the dissociation rate constant, kon is the association rate constant. • (2) Reaction of two states (with conformational change): Kd = koff1/kon1 × (1 + kon2/koff2) − 1, where Kd is the equilibrium dissociation constant, koff1 is the dissociation rate constant, kon1 is the association rate constant, kon2 is the direct association rate constant for the CP ↔ transition CP*, koff2 is the inverse dissociation rate constant for the CP ↔ CP* transition.
The model describing the interaction was chosen according to the lowest chi2 parameter’s value. Chi2 is a measure of the average squared residual between the experimental data and the fitted curve.

[5] = biological target: T2, hP2X7 (47-334 a.a., extracellular domain, 36.8 kDa) (human) (UniProt Q99572)
T2 sequence: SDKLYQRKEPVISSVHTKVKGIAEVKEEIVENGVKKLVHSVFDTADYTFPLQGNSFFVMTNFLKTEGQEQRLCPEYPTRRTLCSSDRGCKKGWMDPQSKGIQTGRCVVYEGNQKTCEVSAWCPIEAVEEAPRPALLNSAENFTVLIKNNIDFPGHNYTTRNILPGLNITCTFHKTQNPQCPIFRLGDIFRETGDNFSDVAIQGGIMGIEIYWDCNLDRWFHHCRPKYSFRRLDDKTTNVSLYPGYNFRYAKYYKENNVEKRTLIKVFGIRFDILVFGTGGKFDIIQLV

[6] = biological target: T2, hP2X7 (47-334 a.a., extracellular domain, 36.8 kDa) (human); remark: listed apart in the source
[7] = biological target: T2, hP2X7 (47-334 a.a., extracellular domain, 36.8 kDa) (human); assay: SPR; Biacore 3000, hP2X7 extracellular domain amine-coupled to a CM5 chip (12300 RU), peptides 5-100 uM injected as analytes at 10 uL/min for 6 min, 25 °C, HBS-N (10 mM HEPES, 150 mM NaCl, pH 7.4); fitted with 1:1 Langmuir or two-state (conformational change) model; design: kon2 (two-state model, step CP to CP*): unit not given here

Nc1ncnc2c1ncn2[C@@H]1O[C@H](COP(=O)(O)OP(=O)(O)OP(=O)(O)O)[C@@H](O)[C@H]1O [ATP, adenosine triphosphate, reference compound]
increase in percentage of dead cells vs cells without ATP (Neuro-2a cells [1]): up to 40% | intracellular Ca2+ after ATP (P2X7 in Neuro-2a cells): strong sustained increase in [Ca^2+]I | [Ca2+]i response to ATP in Ca2+-free medium (Neuro-2a cells [2]; 1 mM ATP, Ca2+-free medium): did not cause an increase in [Ca^2+]I

CC(C)(C)c1cc(O)c(C(C)(C)C)cc1O [BHQ, 2,5,-di(t-butyl) hydroquinone]
[Ca2+]i in Ca-free medium (Neuro-2a cells [2]): led to a significant increase in [Ca^2+]I

CC(C)(C)[N+]([O-])=Cc1ccccc1 [N-tert-butyl-α-phenylnitrone]
ATP or Bz-ATP-induced ROS production [3]: eliminated

C[C@H](CCC(=O)O)C[C@H](C)C[C@H](C)C(=O)/C=C(\O)[C@H](C)C[C@H](C)C/C=C/[C@@H](C)[C@@H](O)[C@@H](C)[C@@H](O)C[C@@H]1CC[C@@](C)([C@H]2CC[C@@](C)([C@@H](C)O)O2)O1 [ionomycin]
[Ca2+]i in Ca-free medium (Neuro-2a cells [2]): led to a significant increase in [Ca^2+]I

GSICLEPKVVGPCTAYLRRFYFDSETGKCTPFIYGGCEGNGNNFETLRACRAICRA (disulfide 4-54, 13-37, 29-50) [HCGS1.10]
Kd [4]: 26.3 µM | koff ([4]; same value printed under koff1 and koff2, average ± SD): (4.5 ± 0.52) × 10^−3 c^−1 | kon ([4]; same value printed under kon1 and kon2, average ± SD): (1.71 ± 0.19) × 10^2 mole^−1c^−1

HCGS1.10 (peptide)
decrease of the 1 mM ATP-induced rise in intracellular Ca2+ (Fluo-8AM) in mouse Neuro-2a cells with endogenous P2X7, peptide 0.1-10 uM pre-incubated 30 min; value at 0.1 uM [5]: 43.8%

HCGS1.19 (peptide)
decrease of the 1 mM ATP-induced rise in intracellular Ca2+ (Fluo-8AM) in mouse Neuro-2a cells with endogenous P2X7, peptide 0.1-1 uM pre-incubated 30 min [5]: 54.8% | 4 mM ATP-induced uptake of YO-PRO-1 by mouse Neuro-2a cells (P2X7 macropore), peptide 0.01-10 uM pre-incubated 10 min; dye uptake reduced to the printed percent [6]: 56.2%

HCGS1.36 (peptide)
decrease of the 1 mM ATP-induced rise in intracellular Ca2+ (Fluo-8AM) in mouse Neuro-2a cells with endogenous P2X7, peptide 0.1-1 uM pre-incubated 30 min [5]: 53.9% | 4 mM ATP-induced uptake of YO-PRO-1 by mouse Neuro-2a cells (P2X7 macropore), peptide 0.01-10 uM pre-incubated 10 min; dye uptake reduced to the printed percent [6]: 47.8%

HCRG1 (peptide)
decrease of the 1 mM ATP-induced rise in intracellular Ca2+ (Fluo-8AM) in mouse Neuro-2a cells with endogenous P2X7, peptide 0.1-10 uM pre-incubated 30 min; value at 0.1 uM [5]: 57.5% | koff1 (two-state model, step CP to C + P) [7]: 0.0437 c^−1 | koff2 (two-state model, step CP* to CP) [7]: 0.0015 c^−1 | kon1 (two-state model, step C + P to CP) [7]: 920 mole^−1c^−1 | kon2 (two-state model, step CP to CP*) [7]: 0.0085

B1: APHC3 (peptide)
chain: GSICLEPKVVGPCTAYFPRFYFNSETGKCTPFIYGGCEGNGNNFETLRACRGICRA
decrease of the 1 mM ATP-induced rise in intracellular Ca2+ (Fluo-8AM) in mouse Neuro-2a cells with endogenous P2X7, peptide 0.1-10 uM pre-incubated 30 min; value at 0.1 uM [5]: 53.2%

Source: PMC10053369, “Recombinant Analogs of Sea Anemone Kunitz-Type Peptides Influence P2X7 Receptor Activity in Neuro-2a Cells” (Marine Drugs, 2023)
